Measured values from patent US20210032313A1 (Daiichi Sankyo, published 2021).

T1: human KLK14 (human, UniProt Q9P0G3 25-251)
T1 sequence: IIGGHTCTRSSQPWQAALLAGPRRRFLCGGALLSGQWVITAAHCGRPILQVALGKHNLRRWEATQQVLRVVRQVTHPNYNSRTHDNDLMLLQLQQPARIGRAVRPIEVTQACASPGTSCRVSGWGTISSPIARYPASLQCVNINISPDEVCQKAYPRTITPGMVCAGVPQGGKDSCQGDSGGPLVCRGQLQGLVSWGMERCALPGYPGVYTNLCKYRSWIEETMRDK

T2: human KLK5 (human, UniProt Q9Y337 67-293)
T2 sequence: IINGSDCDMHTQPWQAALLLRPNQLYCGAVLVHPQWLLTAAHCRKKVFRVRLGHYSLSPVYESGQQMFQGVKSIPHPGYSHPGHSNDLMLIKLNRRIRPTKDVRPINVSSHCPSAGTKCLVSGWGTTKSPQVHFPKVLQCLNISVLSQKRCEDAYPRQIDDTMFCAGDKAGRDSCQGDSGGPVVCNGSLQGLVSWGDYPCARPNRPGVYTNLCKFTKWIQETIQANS

T3: KLK8 (human, UniProt O60259)
T3 construct: prepared by the inventors; 5 nM in the assay; substrate Boc-Val-Pro-Arg-AMC 100 µM; also called Human KLK8; hKLK8
T3 sequence (protease, looked up): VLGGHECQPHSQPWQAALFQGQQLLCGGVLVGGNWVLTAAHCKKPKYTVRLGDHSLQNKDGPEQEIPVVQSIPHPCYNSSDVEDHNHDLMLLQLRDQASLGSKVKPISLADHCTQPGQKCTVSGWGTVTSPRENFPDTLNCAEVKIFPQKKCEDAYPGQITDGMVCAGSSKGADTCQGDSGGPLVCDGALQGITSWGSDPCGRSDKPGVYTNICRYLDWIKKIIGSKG

T4: mouse KLK14 (mouse, UniProt Q8CGR5 24-250)
T4 sequence: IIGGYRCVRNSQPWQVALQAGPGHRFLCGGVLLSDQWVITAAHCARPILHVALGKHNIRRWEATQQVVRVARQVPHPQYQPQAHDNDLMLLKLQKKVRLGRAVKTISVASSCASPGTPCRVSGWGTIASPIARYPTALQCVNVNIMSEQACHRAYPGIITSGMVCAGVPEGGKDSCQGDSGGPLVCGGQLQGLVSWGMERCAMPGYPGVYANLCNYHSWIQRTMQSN

T5: mouse KLK5 (mouse)
T5 chain: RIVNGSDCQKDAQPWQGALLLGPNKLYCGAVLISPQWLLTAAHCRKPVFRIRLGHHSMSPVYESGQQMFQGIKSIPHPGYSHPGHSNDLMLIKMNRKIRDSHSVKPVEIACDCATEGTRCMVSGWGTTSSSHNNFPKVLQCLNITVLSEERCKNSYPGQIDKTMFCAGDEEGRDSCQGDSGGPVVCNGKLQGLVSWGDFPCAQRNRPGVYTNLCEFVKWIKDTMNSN


Legend:
KLK4 = target: T6, KLK4 (human, UniProt Q9Y5K2); experiment: fluorogenic peptide substrate cleavage, 1 µM inhibitor
T6 construct: commercial enzyme (R&D Systems, 1719-SE); 1 µg/mL in the assay; substrate Boc-Val-Pro-Arg-AMC 100 µM; also called Human KLK4; hKLK4
Description: FIG. 3F includes graphs to evaluate the cross-reactivity of each inhibitory peptide with proteases, using the degradation of a peptide substrate as an index. For evaluating the Human KLK1 inhibitory activity, hKLK1 (R&D Systems, Inc., 2337-SE) with a final concentration of 0.1 μg/mL and a substrate peptide Pro-Phe-Arg-MCA (PEPTIDE […], INC., 3096-v) with a final concentration of 100 μM were used. For evaluating the Human KLK2 inhibitory activity, hKLK2 (R&D Systems, Inc., 4104-SE) with a final concentration of 2 μg/mL and a substrate peptide Pro-Phe-Arg-MCA (PEPTIDE […], INC., 3096-v) with a final concentration of 100 μM were used. For evaluating the Human KLK4 inhibitory activity, hKLK4 (R&D Systems, Inc., 1719-SE) with a final concentration of 1 μg/mL and a substrate peptide Boc-Val-Pro-Arg-AMC (R&D Systems, Inc., ES011) with a final concentration of 100 μM were used.
(§1) The specificities for other proteases were evaluated using the degradation of a substrate peptide as an index. As in the method described in (3-1), 25 μL each of a protease and a sample diluted with an assay buffer were mixed (to a final concentration of sample of 1 μM), followed by a reaction at 37° C. for 20 minutes. Thereafter, 50 μL of a substrate diluted with an assay buffer was added thereto, and the fluorescence signal was measured using Enspire (PerkinElmer). An assay buffer (50 mM Tris, 150 mM NaCl, pH 8.0) was used for the evaluation of the protease activity, and a PROTEOSAVE® SS96F black plate (Sumitomo Bakelite Co., Ltd.) was used for the reaction and the measurement. The combinations of the protease and the substrate used for the evaluation of the specificity were as follows.

human KLK14 = target: T1, human KLK14; experiment: cell-based or functional assay
human KLK5 [1] = target: T2, human KLK5; experiment: cell-based or functional assay
KLK8 = target: T3, KLK8; experiment: fluorogenic peptide substrate cleavage, 1 µM inhibitor
Description: FIG. 3G includes graphs to evaluate the cross-reactivity of each inhibitory peptide with proteases, using the degradation of a peptide substrate as an index. For evaluating the Human KLK7 inhibitory activity, hKLK7 with a final concentration of 1 μg/mL and a substrate peptide Mca-Arg-Pro-Lys-Pro-Val-Glu-Nval-Trp-Arg-Lys (Dnp)-NH₂ (R&D Systems, Inc., ES002) with a final concentration of 20 μM were used. For evaluating the Human KLK8 inhibitory activity, hKLK8 (UniProt: 060259, prepared by the inventors) with a final concentration of 5 nM and a substrate peptide Boc-Val-Pro-Arg-AMC (R&D Systems, Inc., ES011) with a final concentration of 100 μM were used. For evaluating the Human KLK12 inhibitory activity, hKLK12 (R&D Systems, Inc., 3095-SE) with a final concentration of 0.1 μg/mL and a substrate peptide Boc-Val-Pro-Arg-AMC (R&D Systems, Inc., ES011) with a final concentration of 100 μM were used.
as §1

mouse KLK7 = mouse KLK7 (mouse, UniProt Q91VE3 26-249); experiment: cell-based or functional assay
mouse KLK14 = target: T4, mouse KLK14; experiment: cell-based or functional assay
mouse KLK5 = target: T5, mouse KLK5; experiment: cell-based or functional assay
human KLK5 [2] = target: T2, human KLK5; experiment: SPR, BIAcore T200; biotinylated KLK5 captured on chip, peptide as analyte; single cycle kinetics, 1:1 model
Description: In order to measure the binding affinity of the KLK5 inhibitory peptides, surface plasmon resonance analysis was conducted using BIAcore T 200 (GE healthcare). A complementary strand of DNA of a streptavidin conjugate was captured by hybridization on Sensor Chip CAP (GE healthcare) on which single-stranded DNA immobilized. Next, KLK5 biotinylated using EZ-Link NHS-PEG4-Biotin (Thermo Fisher Scientific) was captured at a flow rate of 10 μL/min to immobilize about 10 RU. Thereafter, the KLK5 inhibitory peptide, serially diluted 2-fold with HBS-EP (0.625 to 10 nM), was added thereto as an analyte at a flow rate of 30 μL/min. In the BIAcore T 200 Evaluation software (version 2.0), kon and koff were calculated by analysis using Single cycle kinetics in a simple one-to-one Langmuir binding model. The dissociation constant KD was calculated as a ratio of koff/kₒₙ. Further, multiple KLK5 inhibitory peptides were measured by regenerating Sensor Chip CAP using a Regeneration buffer attached to a Biotin CAPture Kit (GE healthcare) and repeatedly capturing biotinylated KLK5.

Plasmin = target: T7, Plasmin (human, UniProt P00747); experiment: fluorogenic peptide substrate cleavage, 1 µM inhibitor
T7 construct: commercial enzyme (Sigma-Aldrich, P1867); 50 nM in the assay; substrate Boc-Val-Leu-Lys-MCA 100 µM; also called Human plasmin
Description: FIG. 3C includes graphs to evaluate the cross-reactivity of each inhibitory peptide with proteases, using the degradation of a peptide substrate as an index. For evaluating the Human plasmin inhibitory activity, plasmin (Sigma-Aldrich Co. LLC, P1867) with a final concentration of 50 nM and a substrate peptide Boc-Val-Leu-Lys-MCA (PEPTIDE […], INC., 3104-v) with a final concentration of 100 μM were used. For evaluating the Human thrombin inhibitory activity, thrombin (Sigma-Aldrich Co. LLC, T6884) with a final concentration of 1 nM and a substrate peptide Boc-Val-Pro-Arg-AMC (R&D Systems, Inc., ES011) with a final concentration of 100 μM were used. For evaluating the Human neutrophil elastase inhibitory activity, neutrophil elastase (Enzo Life Sciences, BML-SE284) with a final concentration of 0.00001 U/μL and a substrate peptide Suc (OMe)-Ala-Ala-Pro-Val-MCA (PEPTIDE […], INC., 3153-v) with a final concentration of 100 μM were used.
The specificities for other proteases were evaluated using the degradation of a substrate peptide as an index. […] Thereafter, 50 μL of a substrate diluted with an assay buffer was added thereto, and the fluorescence signal was measured using Enspire (PerkinElmer). […]

human KLK7 = human KLK7 (human, UniProt P49862 30-253); experiment: cell-based or functional assay
bChymotrypsin = experiment: fluorogenic peptide substrate cleavage, 1 µM inhibitor
Description: FIG. 3A includes graphs to evaluate the cross-reactivity of each inhibitory peptide with proteases, using the degradation of a peptide substrate as an index. For evaluating the Bovine trypsin inhibitory activity, trypsin (Pierce, 20233) with a final concentration of 5 nM and a substrate peptide Boc-Val-Pro-Arg-AMC (R&D Systems, Inc., ES011) with a final concentration of 100 μM were used. For evaluating the Human trypsin inhibitory activity, trypsin (Sigma-Aldrich Co. LLC, T6424) with a final concentration of 1 nM and a substrate peptide Boc-Val-Pro-Arg-AMC (R&D Systems, Inc., ES011) with a final concentration of 100 μM were used. For evaluating the Bovine α-chymotrypsin inhibitory activity, chymotrypsin (Worthington Biochemical Corporation, LS001434) with a final concentration of 10 nM and a substrate peptide Suc-Leu-Leu-Val-Tyr-MCA (PEPTIDE […], INC., 3120-v) with a final concentration of 100 μM were used.
as §1

mouse KLK7, sequence (Q91VE3 26-249): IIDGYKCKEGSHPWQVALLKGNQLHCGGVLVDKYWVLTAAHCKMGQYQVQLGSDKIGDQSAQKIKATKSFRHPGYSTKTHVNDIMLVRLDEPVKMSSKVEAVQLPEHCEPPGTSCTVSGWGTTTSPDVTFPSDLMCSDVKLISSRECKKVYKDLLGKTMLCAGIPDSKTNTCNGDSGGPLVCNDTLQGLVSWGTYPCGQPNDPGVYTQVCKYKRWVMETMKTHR
T6 sequence (Q9Y5K2 31-254 limits assumed): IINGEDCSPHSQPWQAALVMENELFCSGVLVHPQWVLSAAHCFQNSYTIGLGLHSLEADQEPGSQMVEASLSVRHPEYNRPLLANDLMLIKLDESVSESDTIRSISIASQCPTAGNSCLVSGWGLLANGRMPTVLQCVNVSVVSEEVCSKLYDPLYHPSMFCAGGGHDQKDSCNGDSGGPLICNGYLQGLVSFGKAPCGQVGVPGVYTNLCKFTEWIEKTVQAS
T7 sequence (P00747 97-810 limits assumed): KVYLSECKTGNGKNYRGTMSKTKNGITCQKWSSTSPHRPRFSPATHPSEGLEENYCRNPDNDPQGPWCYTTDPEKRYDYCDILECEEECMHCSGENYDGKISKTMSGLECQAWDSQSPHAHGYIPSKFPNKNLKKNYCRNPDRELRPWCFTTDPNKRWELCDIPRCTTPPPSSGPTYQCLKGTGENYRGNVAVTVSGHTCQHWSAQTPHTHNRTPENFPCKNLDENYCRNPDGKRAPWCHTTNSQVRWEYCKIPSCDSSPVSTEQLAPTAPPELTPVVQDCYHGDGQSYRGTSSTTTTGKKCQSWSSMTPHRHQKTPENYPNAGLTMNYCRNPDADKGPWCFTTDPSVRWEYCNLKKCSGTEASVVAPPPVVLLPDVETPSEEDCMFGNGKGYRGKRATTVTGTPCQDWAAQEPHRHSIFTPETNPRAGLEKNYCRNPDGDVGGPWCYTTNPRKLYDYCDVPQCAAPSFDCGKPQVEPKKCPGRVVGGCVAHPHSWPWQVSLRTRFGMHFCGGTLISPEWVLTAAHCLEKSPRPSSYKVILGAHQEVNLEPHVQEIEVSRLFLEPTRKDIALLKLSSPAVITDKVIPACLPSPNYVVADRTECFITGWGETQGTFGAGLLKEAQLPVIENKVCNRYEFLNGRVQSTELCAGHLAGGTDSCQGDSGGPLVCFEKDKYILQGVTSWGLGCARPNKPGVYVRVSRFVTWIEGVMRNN
human KLK7, sequence (P49862 30-253): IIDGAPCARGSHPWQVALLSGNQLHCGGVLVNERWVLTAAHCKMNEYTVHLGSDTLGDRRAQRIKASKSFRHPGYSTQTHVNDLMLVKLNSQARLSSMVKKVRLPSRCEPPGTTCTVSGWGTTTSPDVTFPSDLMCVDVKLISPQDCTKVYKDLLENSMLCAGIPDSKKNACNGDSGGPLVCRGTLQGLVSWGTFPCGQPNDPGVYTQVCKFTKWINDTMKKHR

| Binder | binding result (KLK4) | IC50(nM) for hKLK14 (human KLK14) | IC50(nM) for hKLK5 (human KLK5 [1]) | binding result (KLK8) | IC50(nM) for mKLK7 (mouse KLK7) | IC50(nM) for mKLK14 (mouse KLK14) | IC50(nM) for mKLK5 (mouse KLK5) | Kd (human KLK5 [2]) | koff (human KLK5 [2]) | kon (human KLK5 [2]) | binding result (Plasmin) | IC50(nM) for hKLK7 (human KLK7) | binding result (bChymotrypsin) |
| --- | --- | --- | --- | --- | --- | --- | --- | --- | --- | --- | --- | --- | --- |
| KLK5 inhibitory peptide K50062 (SPINK2 mutant peptide made in E. coli) GPQFGLFSKYRTPNCQQYRELGCGRQYDPVCGSDMSTYANECTLCMKIREGGHNIKIIRNGPCGG | binds | 499 nM | 7.5 nM | binds | > 1000 nM | > 1000 nM | 10 nM | 0.0025 nM | 2.9e-06 s⁻¹ | 1.2e+06 M⁻¹ s⁻¹ | – | – | – |
| KLK5 inhibitory peptide K51034 (SPINK2 mutant peptide made in E. coli) GPQFGLFSKYRTPNCGRYTTGGCNKEYEPVCGSDMSTYANECTLCMKIREGGHNIKIIRNGPCGG | binds | – | 6.4 nM | – | > 1000 nM | > 1000 nM | 54 nM | 0.068 nM | 3.5e-05 s⁻¹ | 520000 M⁻¹ s⁻¹ | binds | – | – |
| KLK5/KLK7 inhibitory peptide K51057 (SPINK2 mutant peptide made in E. coli) GPQFGLFSKYRTPNCGTMQGSGCTYHYEPVCGSDMSTYANECTLCMKIREGGHNIKIIRNGPCGG | – | > 1000 nM | 12 nM | – | 27 nM | 437 nM | 149 nM | 0.26 nM | 0.0015 s⁻¹ | 6e+06 M⁻¹ s⁻¹ | – | 24 nM | binds |
